Test results published in paper PMC7447783, “Cryo-EM structure of trimeric Mycobacterium smegmatis succinate dehydrogenase with a membrane-anchor SdhF” (Nature Communications, 2020).

Legend:
[1] = target: T1, Sdh2 (trimeric diheme succinate:menaquinone oxidoreductase, complex II) (Mycolicibacterium smegmatis, UniProt A0QT08+A0QT09+A0QT10); assay: cryo-EM structure, […] Å; format: binding; settings: co-purified; SdhA subunit
T1 construct: gene sdhA; SdhD with C-terminal 10xHis tag (pVV16) expressed in M. smegmatis; digitonin-solubilised, Ni-NTA and gel filtration; trimer of SdhABCDF; SdhF 3 kDa; with Succinate dehydrogenase iron-sulfur subunit; Succinate dehydrogenase membrane-anchor subunit SdhF

[2] = target: Mycobacterium smegmatis succinate dehydrogenase Sdh2 (trimer of SdhA-SdhB-SdhC-SdhD-SdhF protomers) (M. smegmatis) (UniProt A0QT09); assay: cryo-EM structure; digitonin-solubilised Sdh2 complex co-purified from M. smegmatis membranes, 5 mg/mL, 20 mM MOPS pH 7.4, 100 mM NaCl, 0.1% digitonin; 2.8 Å
[3] = target: the molecule itself; assay: as above

In the case of `Cc1cc2nc3c(=O)[nH]c(=O)nc-3n(C[C@H](O)[C@H](O)[C@H](O)COP(=O)(O)OP(=O)(O)OC[C@H]3O[C@@H](n4cnc5c(N)ncnc54)[C@H](O)[C@@H]3O)c2cc1C` [FAD], the “cryo-EM structure, 2.8 Å” value [1] is reported as “All the prosthetic groups (FAD, [2Fe-2S], [4Fe-4S], [3Fe-4S], and two b-type heme groups)”.

With “Mycobacterium smegmatis succinate dehydrogenase Sdh2 (trimer of SdhA-SdhB-SdhC-SdhD-SdhF protomers) (from UniProt A0QT09 1-156) (complex)” the stoichiometry N [2] was 3.

B1: SdhD subunit of M. smegmatis Sdh2 (membrane-anchored protein) with C-terminal 10x His tag (natural protein)
chain: MSAPGAGESRLGRPAPVMEREHDRPAALDHPRAPRKPRGIPYFEKYAWLFMRFSGIALVFLALGHLFIMLMWQDGVYRIDFNYVAERWASPFWQIWDMALLWLAMIHGANGMRTIIGDYARKNVTKFWLNSLLLLATGFTLVLGSYVLVTFDANIS
notes: SdhD (Sdh2D), membrane-anchor subunit of M. smegmatis Sdh2 with three transmembrane helices (IV-VI), gene MSMEG_1671; also called Sdh2D; subunit D; source: M. smegmatis mc2 51, expressed from pVV16; digitonin extract of membranes, purified with the complex (Ni-NTA, Superdex 200); not shown: His10, C-terminal, kept
B1: binds [3].
